assay: yeast display, Sf9 membrane polyspecificity reagent, FACS + sequencing; frameworks hold sequencing errors
How it was run: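 Sorting gates, low and high (top ~1%), were placed on anti-HA fluorescence to track expression and on streptavidin fluorescence to track reagent binding. A clone's polyreactivity label is taken from the gate it came out of. The reagent was 10% biotinylated, detergent-solubilized Sf9 membrane, applied for 1 hour at 4 °C to galactose-induced yeast display cells.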

| Sequence | polyreactivity (PSR sort gate) |
| --- | --- |
| QVQLVESGGGLVQAGGSLRLICVASGRIFLTYAMGWYRQAPGKERELVAAISYSGASTYYADSVKGRFTISRDNAKNTVYLQMNSLKPEDTAVYYCAKDGTQYERQDPAYGYWGQGTQVTVSS | high polyreactivity |
| QVQLVESGGGLVQAGGSLRLISAASGRTFWTNAMGWYRQAPGKEREFVAAISWRGASTFYADSVKGRFTISRDNAKNTVYLQMNSLKPEDTAVYYCAAQSRTRSFYGKYDSWGQGTQVTVSS | low polyreactivity |
| QVQLVESGGGLVQAGGSLRLISAASGRTFYSYAMGWYRQATGKERELVASISSGGGTNYADSVKGRFTSSRDNAMNTVYLQMNSLKPEDTAVYYGAAKYWFFYPYDYWGQGTQVTVSS | low polyreactivity |
| QVQLVESGGGLVQAGGSLRLISAASGSIFVGNAMGWYRQSPGKERELVAAISRSGGRTYYADSVKGRFTISRDNAKNTVYLQMNSLKPEDTAVYYCNAYGWEQRQMDSWGQGTQVTVSS | high polyreactivity |
| QVQLVESGGGLVQAGGSLRLNCAASGITYTQYAMGWYRQAPGKERELVAAISKRGGRTYYADSVKGRFTISRDNAKNTVYLQMNCLIPEDTAVYYCATVPYGEVDYWGQGTQVTVSS | high polyreactivity |
| QVQLVESGGGLVQAGGSLRLNCAASGSTFARNAMGWYRQAAGKERELVAAISGSGGSTYYADSVKGRFTISRDNAKNTVYLQMNSLKPEDTAVYYCAAARRYYAYRYDYWGQGTQVTVSS | high polyreactivity |
| QVQLVESGGGLVQAGGSLRLNCAASGSTFPKYAMGWYRQAPGKERELVAAISWSGDSTYYADSVKGRFTISRDNAKNSVYLKMNRLKPEDTAFYYCAAYNFIHAGPWVYEYWGQCTQVTVSS | low polyreactivity |
| QVQLVESGGGLVQAGGSLRLRCAASGFIFARYAMGWYRQAPGKERELVAAITWSGDSTYYAYSVKGRFTISRDNAKYTVYLQMNSLKPEDTAVYYCYPVSGYAKYDYWGQGTQVTVSS | low polyreactivity |
| QVQLVESGGGLVQAGGSLRLRCAASGFIFARYAMGWYRQAPGKERELVASITCRGTSTRYADSVKGRFTISRDNAKNTVYLEMNSLKPEDTAVYYCNAARLSYSWVPSEMDFWGQGTQVTVSS | high polyreactivity |
| QVQLVESGGGLVQAGGSLRLRCAASGFIFGPNAMGWYRQAPGKEREFDAAINWSGGTTYYADSVKGRFTISRDNAKNTVYLQMNSLKPEDTAVYYCAASLYSDVAAVATYGYYWGQGTQVTVSS | low polyreactivity |
| QVQLVESGGGLVQAGGSLRLRCAASGFIFNYYALGWYRQAPGKERELVAAINSGGNTYYADSVKGRFTISRDNAKNPVYIKMNTLKPEDTAVYYCNRDPESVGYDYWGQGTQVTVSS | low polyreactivity |
| QVQLVESGGGLVQAGGSLRLRCAASGFPFDSYAMGWYRQAPGKERELVAAITSDGSTYYADSVKGRFTISRDNAKNTVYVLMNSLKPEDTAVYYCAADGISLYATAYDYWGQGTQVSVSS | low polyreactivity |
| QVQLVESGGGLVQAGGSLRLRCAASGFTFGRYAMGGYRQAPGKERELVAGITSGGSTYYADSVKGRFTISLDNAKNTVYLQMNSLKPEDTAVYYCITKVISRTSERRGNGFTRYDYWGQGTQVTVSS | low polyreactivity |
| QVQLVESGGGLVQAGGSLRLRCAASGFTFTKNAIGWYRQAPGKERELVAAITRRGSSTYYADSVKGRFTISRDNAKNTVYIQMNSLKPEDTAVYYCNADYETISGDYWGQGTQVTVSS | high polyreactivity |
| QVQLVESGGGLVQAGGSLRLRCAASGGIFGLYTMGWYRPAPGKERELVAGISKRGTRTRYADSVKGRFTISRDNAKNTVYIQMTSLKPEDTAVYYCNADYYVSKLDYWGQGTQVTVSS | high polyreactivity |
| QVQLVESGGGLVQAGGSLRLRCAASGGTFSGYTMGWYRQAPGKERELVAAINWSGGRTYYADSVKGRFTISRDNAKNTVYLQMNSLKPEDTAVYYCNKYGLYYREYDYWGQGTQVTVSS | high polyreactivity |

| Sequence | polyreactivity (PSR sort gate) |
| --- | --- |
| QVQLVESGGGLVQAGGSLRLRCAASGITFSGNAMGWYRQAPRKERELVAAITFSGGRTYYADSVKGSFTISRDNAKNTVYLQMNSLKPEDSAVYYCAAETPRGRWLGDYWGQGTQVTVSS | low polyreactivity |
| QVQLVESGGGLVQAGGSLRLRCAASGITFTINAMGWYRQAPGTEGELVATISINGGSTNYADSVKGRFTISRDNAKNTVYLQMNSLKPEDTAVYYCAADALGPFRFQFFYTTAYVYWGQGTQVTVSS | low polyreactivity |
| QVQLVESGGGLVQAGGSLRLRCAASGKTFSWYALGWYRLAPGKERELVAVITSGGSTNYADSVKWRFTISRDNAKNTVYLQMNSLKPEDTAVYYCNRRPYGFEEFDYWGQGTQVTVSS | low polyreactivity |
| QVQLVESGGGLVQAGGSLRLRCAASGLIFGTYAMGWYRQAPGKERELVATISQIGGSTYYADSVKGRFTISRDNAKNTVYLEMNSLKPEETAVYYCAVDGGEFSSYGYWGQGTQVTVSS | low polyreactivity |
| QVQLVESGGGLVQAGGSLRLRCAASGLIFPVYAMGWYRQEPGKEREFVAAITYDGGNTYYADSVKGRFTISRDNAKNTVYLQMNSLKPEDTAVYYCNRRYPGPDSFEHYYYYRYDYWGQGTQVTVSS | low polyreactivity |
| QVQLVESGGGLVQAGGSLRLRCAASGLTVRNYAMGWYRQAPRKERDLVAAISSGGGSTYYADSVKGRFTISRDNAKNTVYLQMNSLKPEDTAVYYCAAKRHTSLYVYYYWGQGTQVTVSS | high polyreactivity |
| QVQLVESGGGLVQAGGSLRLRCAASGNIFDRYAMGWYRQAPGKERELVAAISWSDGTTYYADSVKGRFTISRDNAKNTVYLQMNTLKPEDTAVYNCAGVYTYPLGYYHYTYDDWGQGTQVSVSS | low polyreactivity |
| QVQLVESGGGLVQAGGSLRLRCAASGRIFDWYALGWNRQAPGQERELVAAITSGGSTYYADSVKGRFTISRDNAKNTVYLQMNSLKTEDTAVYYCAADLYYWGDSDYWGQGTQVTVSS | low polyreactivity |
| QVQLVESGGGLVQAGGSLRLRCAASGRIFGRYAMGWYRQAPGKERELVASISRGGSTNYADSVKGRFTISLDNAKNTVYLQMNSLKPEDTAVFYFAKSGGVGGDDRVGSWGQGTQVTVSS | low polyreactivity |
| QVQLVESGGGLVQAGGSLRLRCAASGRIFSTYAMGWYRQAPGKERALVAAINKIGGSTYYADSVKGRFTISRDNAKNTVYLQMNSLKPEDTAVYYCAADAPFYPVRRYYYWGQGTQVTVSS | low polyreactivity |
| QVQLVESGGGLVQAGGSLRLRCAASGRIFTYYAMGWYRPAPGKERELVAAISWSGGSTYYADSVKGRFTISRDNAKNTVYLQMNSLKPEDTAVYYCNAVYPSVYPVSTRYYWGQGTQVTVSS | high polyreactivity |
| QVQLVESGGGLVQAGGSLRLRCAASGRIFWSNAMGWYRQAPGKERELVAAISSGGSTNYADSEKGRFTISRDNAKNTVYLQMNSLKPEDTEVYYCATRGIQRGFSRWGGLDYWGQVTQVTVSS | low polyreactivity |
| QVQLVESGGGLVQAGGSLRLRCAASGRNFVANGKGWYRQAPGKERELVAAINDGDDTYYADSVKGRFTISRDNAQNTVYLQMNSLKPEDTEVYYCAADIIYGYEVYTYTSDYWGQGTQVTVSS | low polyreactivity |
| QVQLVESGGGLVQAGGSLRLRCAASGRTFDKYAMGWYRQAPGKERELVAAISYDAGRTYYADSVKGRFTISRDNAKNTVYLQMNSLKPEDNAVYFCNAVRFRGFGWGQGTQVTVSS | high polyreactivity |
| QVQLVESGGGLVQAGGSLRLRCAASGRTFGRYAMGWYRQAPGKERELVAAISTSGGSTFYADSVKGRITISRDNAKNTVYLLMNSLKPEDTAVYYCAADYRRFWGRYGYWGQGTQVTVSS | high polyreactivity |
| QVQLVESGGGLVQAGGSLRLRCAASGRTFHAYVMGWYIQAPVKERELVADISSGGDTYADSVKGRFTISRDNAKNTVYLQMNSLKPEDTAVYYCAVDLIQDESGYWGQGTQVTVSS | low polyreactivity |
